Experiment: label from the status in PepcDB records

With “MFLIILIKSLIIGGLVGVGVGAGAARMFHAPTTQGMGAFRTLGELNSCEGDPASHFSFGLGFFFNAWASSVAAGSFTQDVDHRIIPNWGAAALMLKNRNVGETLHDPKKMAISCGIIGMIVVAFLNLTASSVPEALQVTAVKVLVPAANLLVNTVMPVIFWLAAIDAGKKSGFWATIFGGAAQLIMGNAVPGLVLGILIGKGVEESGWNRVTKVMMVAIVALFVLSGFFRGFDMKMIESFHLTVPNWLDMIHNSLSGK” the protein production was “failed”.

For “MTPEAAYQNLLEFQRETAYLASLGALAAWDQRTMIPKKGHEHRARQMAALARLLHQRMTDPRIGEWLEKVEGSPLVQDPLSDAAVNVREWRQAYERARAIPERLAVELAQAESEAESFWEEARPRDDWRGFLPYLKRVYALTKEKAEVLFALPPAPGDPPYGELYDALLDGYEPGMRARELLPLFAELKEGLKGLLDRILGSGKRPDTSILHRPYPVEAQRRFALELLSACGYDLEAGRLDPTAHPFEIAIGPGDVRITTRYYEDFFNAGIFGTLHEMGHALYEQGLPKEHWGTPRGDAVSLGVHESQSRTWENLVGRSLGFWERFFPRAREVFASLGDVSLEDFHFAVNAVEPSLIRVEADEVTYNLHILVRLELELALFRGELSPEDLPEAWAEKYRDHLGVAPKDYKDGVMQDVHWAGGLFGYFPTYTLGNLYAAQFFQKAEAELGPLEPRFARGEFQPFLDWTRARIHAEGSRFRPRVLVERVTGEAPSARPFLAYLEKKYAALYG”, the protein production was “not failed”.

In the case of “MDNDAAKKQLEFLKGGFKLLCQSGGAIFGDADFDGGNLEASEWIAMTEAQFLGGDYSEKDKLACVSGFFGGQAKFWFHKELSWIPFNSWSQVKDGLLLTFGNNRDKKRVLVELDLEMKHWIKDFDRKREPHKFLES”, the protein production is reported as “failed”.

For “MEGMKGAVLITGASRGIGEATARLLHAKGYRVGLMARDEKRLQALAAELEGALPLPGDVREEGDWARAVAAMEEAFGELSALVNNAGVGVMKPVHELTLEEWRLVLDTNLTGAFLGIRHAVPALLRRGGGTIVNVGSLAGKNPFKGGAAYNASKFGLLGLAGAAMLDLREANVRVVNVLPGSVDTGFAGNTPGQAWKLKPEDVAQAVLFALEMPGHAMVSEIELRPTRPTSGPR”, the protein production was “not failed”.

In the case of “PVGAVMTPRPEVDMIDLSDPPDQIRATFASSPHSRLPATDGDRDDPIGIIQSKDVLEVYLRGETPDFRALVRDAPVIPASADARDALIMLRNASVHMGLVYDEFGGFEGVVSTADILESIVGAFSSEDG”, the protein production is reported as “failed”.

In the case of “MVLEHCRDAIESHGVETDIISLRGMKIESCRACLSCAKKHRCRIDDGLNDIIDRIRDSEGFIVATPVYFGTARGDLMAALQRIGMVSRASDGFLSWKVGGPIAVARRGGHTATIQELLMFYFINDMIVPGSTYWNMVFGWAPGEVEDDSEGIETIRRFGENVAELIKRINGGSLEHHHHHH”, the protein production is reported as “failed”.

For “MTTVIVGAGRIGSSVIELAADANIGVTVIEQEHERAHEFKADENCHVIHDDATERETLHEAEVGNADAIIATTDQDTTNLMVLMLARELGCETLVSVVHAEENIPLFRQLGATIIENPQRLIAEYLFRGTHDPGIQGFMHVGDRDGGAEVFEISVADGAPIIGKTLEQADVAGFLPPSMVVVAVERDGEIIIPRGNTQIETDDLVTVFSKEGIINEVVEPFKPEAKRTGDSDTE”, the protein production was “failed”.

For “MALIETGPGSTVPMLQARLAARGLTPADVSEVFLTHIHLDHAGAAGHLARHGATIYAHHVGLPHLSDPARLLASARRIYGDDMDALWGEMHPVPDDQLVALNDGDTVPLGGEPLTALDTPGHASHHMSYVLGDVCFTGDVGGVRMPEERHVELPLAPPEIDLDAWRESLAALRAAADRHGLTHLAPTHFGLYDDLPAHFERLEAAIETADDWAARKLPGWDDGDEALQDAVTQWMRSRASDHGVDGDAWDRYERANPSWMAALGLRRYWTTQTA”, the protein production was “failed”.

In the case of “MSRFRSLLQASVNATKKALTWNVEEWVPPAEKHIFKFHSKEDLKKWHLYSDSEYGGLSSASLEIPDKGDGSDCTGVFSGNLSVDLSEGSKWNISRSGFCGMRSKKFDGFIDLDGYDAIALRIRGDGRCYISTIYTENWVNSPGQSEDNSWQAFVFAPKDSWYTAKIPLARYLPTWRGNVIDVEMEMNPGRVLGMSLSVNAEGGAVGAKSGAGDFRVEIDWIKALRLP”, the protein production is reported as “failed”.

In the case of “MRRSPWRIAYTTKPADTAVPARHPSMAHIFFAASIQRHIATPEREVDARTLGEALEAVFAAQPRLRGYILDDQGALRKHLAVFVDGQPVRDRQHLSDALGENSRVYVIQALTGG”, the protein production is reported as “failed”.

With “QIAELPYAMRINNSFEARKSPHAFVNLLNYILLEKSGADIACTALFDSANGFDEKITMRDIINNYPFPNTFKVIELSGKDIKLAIERSASYFDIVNHKITVNKEFLEPKPQHFNYDIFAGIQYTIHVSHPYGERVSDLLINDAPIQSDQIYTICVNNYRAVGGGNYDMYVNKPVIKDIQIEGAQLLIDYLSHNDLSQIPQVIDFNVVK” the protein production was “failed”.

With “MNYKVLAYITAYNDYFALNRCIDGLINQTYKIDYLLIVDNSSRPIPIQKLGNNLSIEVQHHPENIGVAGGLTLGIQYAIHKKFDFIWLFDQDSTPYENALENLIYFYDKYINKSEIGILSCAVQDRETGQINCGFIYKNYRFYQQQIDSRKAVYECDAVITSGTLLNCHAAKEIGLPNESLFMDAVDFDYCMKLRKQDYKIFTVCNAKINHRFGNSKSIQLFNRTKFIYLYSSLRYFYVHRNHTYLETRLAKNCLFFIISTFYRIFKSFRKIFVILLFEDSQRLLKIYACSKGTVDGLLGKLGKTWT” the protein production was “failed”.

In the case of “MEIKAMFRDVSLSSRNFSEMLSRESKVVAALAAKSPLMAHANWRLKGNSLEEATLYPAFDADGSPSTPALAVLNEEQRGKKHSASHAAIWNGNTRPNEGASMSCHVSDEKVLPDRFSTRLGVPDCYAKSQDLADVVTTIVAAFNPLVVEASPEGYFDKQVFDDKPGVGWMLYLPKVITQQQVPEARALIPVSAKGKQTGTIIVSVTDAPFSVDNPEHVAIANRIEIRLVDQDLLPAYVDI”, the protein production is reported as “not failed”.

With “MRGSVPSVREIETLLSQLPWRQFQSPRVHLEQYTTPVHLAARIAHHVALCIDEDERRSVQAVDLGTGTGILALALCLAGLNHVLGVDVDSEALELARANAAALWELCPQSVGAVLEFAAVDVQPNSLALAPKSFDVAVLNPPFGTRQRSADIAFLDVACHLSRRFVYSLHKSSTRSYLSRRLERFGCTAQVYARLRFDLPATYVFHRERAVDIDVDLWQIEVKR” the protein production was “not failed”.

With “MVTSSQVMLMPAHDSAKPTGFGIMVTSLDLLRDHQKVIHTLWFIDDVVARELGGFDGFCRRERVLLLFVDSTNTTLSFTRNDMTCVPRQGGADSDHWLFKRHLALLLPLSFAQVYEGFISFYEEEDKHISWDIKSCSSSSHQ” the protein production was “failed”.

In the case of “DISSTEIWDAIRRNSFLLYYQPKVDAKTNELIGFEGLIRLKTATAILAPADFFEDIALLNATREMQDFVAETAIEQINQLGGRFSISINIPAHYVVSSNYMTFLYDYVKEHLKYPECLEIEIIERGEITELAVADKNLRKIKKLGVTVSMDDFGKGYSSLAYLRSLPIDIVKTDMSFIALLKTDRKQQIIIQAIVNLCHDLGGKVVTEGVEDIEQVKTLREMKVDYFQGYYFSRP”, the protein production is reported as “not failed”.

In the case of “MWAFPERFEGRHVRLEPLALAHLPAFLRHYDPEVYRFLSRAPVAPTEEALRAHLEGLLGEPGRVNWAILFGKEVAGRISVIAPEPEHAKLELGTMLFKPFWGSPANKEAKYLLLRHAFEVLRAERVQFKVDLRNERSQRALEALGAVREGVLRKNRRLPDGAFRDDVVYSVLKEEWPGVKARLEARLYGASGN”, the protein production is reported as “not failed”.

For “MKFILRLGLALLTGFVSVSTASAQAYGTADTNAPELRVPKSVQPAFDYWMRDTWATLGPDGYYYITGTTSTPDRHFPGQRHCWDWNDGLYLWRSKDLKIWEAMGRIWSMEKDGTWQKDPKVYKEGEKYAKKSINNDPMDNRFHAVWAPEMHYIKSAKNWFIVACMNQSAGGRGSFILRSTTGKPEGPYENIEGNEDKAIFPNIDGSLFEDTDGTVYFVGHNHYIARMKPDMSGLAEEIKTLKESKYSPEPYVEGAFIFKYDGKYHLVQAIWAHRTVKGDTYVEKEGLTNKKTRYSYDCIIATADNVYGPYGKRYNAITGGGHNNLFQDKDGNWWATMFFNPRGAQAAEYKVTCRPGLIPMLYENGKFKPNHNYQAK”, the protein production was “failed”.

For “MSKELLGVSAVGLMVLGEFCAIYSEVVVARLAHSGNTSGAELALPVLIMCLGGICLLAAYWLGYVAVGDIWIITVVSVTSLLLLEPLVIWALFQQAPGRGALIGFCLGALGMLSAVFL”, the protein production was “failed”.

For “GKVYTINSGPIYANPIIHHQVNEKIGYLVYSAFESGFDQELFDVFKEFKSQNITELILDLRYNGGGDVTSANLISSCIAGDLCIDKTFASYRYNDERMKVLGNQRPIQKFAYSQYDNLSTSLSAGGLNLRKIYCLVTDDSASASELVINALRGIDIEVILIGTTTHGKNVGMEGVELTAGTDKYLLFPITFQAYNAKGFGDFENGFTPDYEINENKPNGEYFEGYGDFGAESDPLYAKAISLISGNEVTT”, the protein production was “failed”.

In the case of “MQYRIRRENEAPEAKNAGETLWERDMMREVLLSAYRDRRRERMWKNIWRAVSTLILVALIAGIFRKDEAALQLAGNTPHTAVVNLYGEIGNGVEDQVKKLKDGMEAAYKNPQAKAIVIRANSPGGSPVVSNTAFEEIRRLKAQHPGIPVYLVAEDMCASGCYYIAAAADKIYADPSSIVGSIGVIGSSFDATGLMEKIGVKRRVKIAGSNKGMGDPFSPETPEQSKIWEEMLTGIHGEFIKAVKTGRGGRLKFRQYPDVFSGRVYTGADALKVGLVDGLGNIYSVARDVVKAPDVVDYTPKDDFGRILGRRFGAELKASVREALQAVR”, the protein production is reported as “failed”.

With “MANWRGAGDSLSTGTGGSEAPPRKSPARLHQWRKLRVSHDDRTCPYQRCRHHLLRRIADARRRYRLLCRRSEHEHSRRVDRSFAEARHGRRRPGRCRSSHPQGCGHRQRDPHKIMSAAPAAPALDALGPDTPAHTVDAFHRGRFWLVQPKHGGHRAGMDAMMLAASVPSVFGGRLADFGAGAGAAGLAVLSRCPAARAVLVERAPEMAAFASATLAHPGNAHLSDRASVLVADVTVSGQARVAAGLADNDFDYVIMNPPFNAARDRATPDRLRKEAHVMEDGLFESWIRSAAAVVRPRGGLAVIARPEQLGAILDAMSGRFGDAEMLAVHPRPDAAAIRIIVRAALGARGKLAIRPPLMLHAQAGNGPDERSEMITNGLASLFGD” the protein production was “failed”.

With “MKQWIAALLLMLIPGVQAAKPQKVTLMVDDVPVAQVLQALAEQEKLNLVVSPDVSGTVSLHLTDVPWKQALQTVVKSAGLITRQEGNILSVHSIAWQNDNIARQEAEQARAQANLPLENRSITLQYADAGELAKAGEKLLSAKGSMTVDKRTNRLLLRDNKTALSALEQWVAQMDLPVGQVELSAHIVTINEKSLRELGVKWTLADAQHAGGVGQVTTLGSDLSVATATTHVGFNIGRINGRLLDLELSALEQKQQLDIIASPRLLASHLQPASIKQESEIPYQVSSGESGATSVEFKEAVLGMEVTPTVLQKGRIRLKLHISQNVPGQVLQQADGEVLAIDKQEIETQVEVKSGETLALGGIFTRKNKSGQDSVPLLGDIPWFGQLFRHDGKEDERRELVVFITPRLVSSELEHHHHHH” the protein production was “not failed”.

In the case of “MEQQHPTIHTLKIETEFFKAVKERRKTFEIRKNDRNFQVGDILILEEYMNGMYLDDECEAEVIYITDYAQREGYVVLGIELH”, the protein production is reported as “not failed”.

With “MYVLVSSPFHYKQFTKFTIFSVFAGFSFIQNELTTYWFFILLFRQEITLFGLGVIARPLVRVFVSYLMGYISDKYDRAKLFYITRGISGILLFPLTFAFIYHSIPLIFGIYYIRTIIVELSNNVGYVAYYAVVPEQVRAKAIFYIRIISMASRVASGAVWYLIYQLISAYDLFLAGILGLIGLALLKGFNIGGGSKRVKLSTAIDFFRKDERIRGIILLYSVTDGLTYSINYLLPLLIIVYHGTEEIYSLSQTVLYGILVIASFVMTRIKDPIKIVSTYILSGFLFYLVLLYPSPYVLLISVLLYGFGSGIVENYVMATIKQSVGDEFLGSVLGLDVLVTSSVEIFLILLGQYLITINVVYYIIVGIVGMSLVLISWLLHPKLKDIKL” the protein production was “failed”.

Reference: a protein production outcome set (Wang et al. 2014)
